Results on 2 substances are retold here after patent US20020090651A1.

For the test, the target named is Xenopus FGF receptor-1 (Xenopus laevis) (UniProt P22182). The experiment in a line: cell-based or functional assay.
UniProt P22182, sequence (P22182 21-812): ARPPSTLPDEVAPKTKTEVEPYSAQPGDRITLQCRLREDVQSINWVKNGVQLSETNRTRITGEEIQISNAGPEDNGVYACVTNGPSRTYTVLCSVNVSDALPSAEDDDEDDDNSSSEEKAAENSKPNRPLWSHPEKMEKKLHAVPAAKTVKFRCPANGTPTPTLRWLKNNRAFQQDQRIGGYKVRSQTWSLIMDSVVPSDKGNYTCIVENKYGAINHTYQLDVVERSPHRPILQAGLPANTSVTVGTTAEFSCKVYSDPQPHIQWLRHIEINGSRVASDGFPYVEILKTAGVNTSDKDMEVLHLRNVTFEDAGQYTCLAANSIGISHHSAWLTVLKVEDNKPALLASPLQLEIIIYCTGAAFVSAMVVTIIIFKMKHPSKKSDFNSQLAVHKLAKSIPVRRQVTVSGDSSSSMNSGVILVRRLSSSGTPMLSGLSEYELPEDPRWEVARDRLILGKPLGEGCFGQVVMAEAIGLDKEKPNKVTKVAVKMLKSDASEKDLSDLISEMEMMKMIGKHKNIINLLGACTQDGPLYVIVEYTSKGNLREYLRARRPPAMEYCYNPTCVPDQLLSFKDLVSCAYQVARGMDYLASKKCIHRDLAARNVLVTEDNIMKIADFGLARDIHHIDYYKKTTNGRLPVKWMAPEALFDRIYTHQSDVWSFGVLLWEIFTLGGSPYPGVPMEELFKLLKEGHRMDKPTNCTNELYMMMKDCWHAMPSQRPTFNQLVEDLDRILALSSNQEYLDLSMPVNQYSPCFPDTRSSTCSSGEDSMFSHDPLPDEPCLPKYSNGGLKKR

With FRL-2 protein (ligand), the Ca2+ release (efflux) of Xenopus oocytes co-injected with ligand and FGF receptor mRNAs stood at 2 fold.
The same measure for “Xenopus bFGF (basic fibroblast growth factor), without a signal sequence (from UniProt P12226 1-155) (ligand)”: 3 fold.
